# Key:
# [1] = biological target: SC rFVIIIFc (single chain recombinant factor VIII Fc fusion protein) (human)
# [2] = biological target: rFVIIIFc (recombinant factor VIII Fc fusion protein) (human) (UniProt P00451)
# [3] = biological target: SC rFVIIIFc R1645A/R1648A (human)
# [4] = biological target: BDD rFVIII (recombinant B-domain-deleted factor VIII, ReFacto / Xyntha) (UniProt P00451)
substance,measurement,setting,value
FIXa (activated factor IX) (enzyme),"Apparent K D (FIXa-FVIIIa affinity), FXa generation assay on synthetic phospholipids, thrombin-activated SC rFVIIIFc",[1],4.1 nM
same,"Apparent K D (FIXa-FVIIIa affinity), FXa generation assay on synthetic phospholipids, thrombin-activated rFVIIIFc",[2],5.5 nM
same,"Apparent K D (FIXa-FVIIIa affinity), FXa generation assay on synthetic phospholipids, thrombin-activated SC rFVIIIFc R1645A/R1648A",[3],3.8 nM
same,"Apparent K D (FIXa-FVIIIa affinity), FXa generation assay on synthetic phospholipids, thrombin-activated BDD rFVIII (ReFacto)",[4],4.5 nM

# Reference: PMC4240654
